Test results from PMC8065591, “SPECT Imaging of SST2-Expressing Tumors with ^99mTc-Based Somatostatin Receptor Antagonists: The Role of Tetraamine, HYNIC, and Spacers” (Pharmaceuticals, 2021).
Where a SMILES comes first, the peptide text is derived from it. Bridges are numbered along the chain shown (N, C = ends). [ ]: non-standard residue; d: D form. The star is where a group is joined. dPhe(4-NHCONH2) = NC(=O)Nc1ccc(C[C@@H](N)C(=O)O)cc1; Dihydroorotyl(S) = O=C1C[C@@H](C(=O)*)NC(=O)N1; Phe(4-Cl) = N[C@@H](Cc1ccc(Cl)cc1)C(=O)O; Phe(4-NH2) = Nc1ccc(C[C@H](N)C(=O)O)cc1; HYNIC = NNc1ccc(C(=O)*)cn1; Ahx = NCCCCCC(=O)O

Assays:
[1] = assay type: physicochemical
Method: In general, all JR11-based radiotracers were more hydrophilic than the corresponding SS01-based radiotracers. […] [^99[…] was excluded from further studies. […] In a pre-lubricated Eppendorf tube, a pre-saturated mixture of 500 μL 1-octanol and 500 μL of phosphate-buffered saline (PBS) at pH 7.4 was added. An amount of 10 μL of 1 μM radiotracer solution was added to this mixture, followed by vortexing of the tube at room temperature for 15 min to reach equilibrium. Centrifugation for 15 min at 3000 rpm was performed for separation of the phases. Aliquots of 100 μL were removed from the octanol and from the PBS phase, and the activity measured in a γ-counter. The partition coefficient was calculated as the average log ratio value of the radioactivity in the organic fraction and PBS fraction.

HEK-SST2 tumors = test system: HEK-SST2 tumors; design: species or system mice; details: mouse, in vivo
Method: The Veterinary Office (Department of Health) of the Cantonal Basel-Stadt approved the animal experiments (approval no. 30515) in accordance with the Swiss regulations for animal treatment. Female athymic nude-Foxn1nu/Foxn1+ mice (Envigo, The Netherlands), 4-6 weeks old, were injected subcutaneously with 10^7 HEK-SST2 cells in the right shoulder, freshly suspended in 100 μL sterile phosphate-buffered saline. The tumors were allowed to grow for 2-3 weeks. Mice bearing HEK-SST2 tumors were euthanized 1 or 4 h after intravenous injection of 4-6 MBq (200 pmol) of the ^99mTc-labeled conjugates and imaged supine, head first, using a SPECT/CT system dedicated to imaging small animals (NanoSPECT/CT^TM Bioscan Inc.). Topograms and helical CT scans of the whole mouse were first acquired using the following parameters: X-ray tube current: 177 μA, X-ray tube voltage 45 kVp, 90 s and 180 frames per rotation, pitch 1. The helical SPECT scan was then acquired from head to toe using multi-purpose pinhole collimators (APT1). The energy window width was 20%, centered symmetrically over the energy peak of ^99mTc at 140 keV. Twenty-four projections (200 s per projection) were used, allowing acquisition of at least 50 kilocounts/projection. […]

SST2 = details: cited from earlier work

C[C@@H](O)[C@@H]1NC(=O)[C@H](CCCCN)NC(=O)[C@@H](Cc2ccc(NC(N)=O)cc2)NC(=O)[C@H](Cc2ccc(NC(=O)[C@@H]3CC(=O)NC(=O)N3)cc2)NC(=O)[C@H](NC(=O)[C@H](Cc2ccc(Cl)cc2)NC(=O)CCCCCNC(=O)c2ccc(NN)nc2)CSSC[C@@H](C(=O)N[C@H](Cc2ccc(O)cc2)C(N)=O)NC1=O [[^99mTc]Tc-HYNIC-Ahx-JR11, metal not drawn] ({HYNIC-Ahx}-[Phe(4-Cl)][dC][Phe(4-NH2)](Dihydroorotyl(S))[dPhe(4-NHCONH2)]KTC[dY]-NH2; disulfide 2-7)
Log D (pH = 7.4) [1]: −3.15 ± 0.06

C[C@@H](O)[C@@H]1NC(=O)[C@H](CCCCN)NC(=O)[C@@H](Cc2c[nH]c3ccccc23)NC(=O)[C@H](Cc2ccc(O)cc2)NC(=O)[C@H](NC(=O)[C@H](Cc2ccc(Cl)cc2)NC(=O)CCCCCNC(=O)c2ccc(NN)nc2)CSSC[C@@H](C(=O)N[C@H](Cc2ccc(O)cc2)C(N)=O)NC1=O [[^99mTc]Tc-HYNIC-Ahx-SS01, metal not drawn]
Log D (pH = 7.4) [1]: −1.96 ± 0.06

C[C@@H](O)[C@@H]1NC(=O)[C@H](CCCCN)NC(=O)[C@@H](Cc2ccc(NC(N)=O)cc2)NC(=O)[C@H](Cc2ccc(NC(=O)[C@@H]3CC(=O)NC(=O)N3)cc2)NC(=O)[C@H](NC(=O)[C@H](Cc2ccc(Cl)cc2)NC(=O)c2ccc(NN)nc2)CSSC[C@@H](C(=O)N[C@H](Cc2ccc(O)cc2)C(N)=O)NC1=O [[^99mTc]Tc-HYNIC-JR11, metal not drawn] ({HYNIC}-[Phe(4-Cl)][dC][Phe(4-NH2)](Dihydroorotyl(S))[dPhe(4-NHCONH2)]KTC[dY]-NH2; disulfide 2-7)
Log D (pH = 7.4) [1]: −2.88 ± 0.11

C[C@@H](O)[C@@H]1NC(=O)[C@H](CCCCN)NC(=O)[C@@H](Cc2c[nH]c3ccccc23)NC(=O)[C@H](Cc2ccc(O)cc2)NC(=O)[C@H](NC(=O)[C@H](Cc2ccc(Cl)cc2)NC(=O)CCOCCOCCOCCOCCNC(=O)c2ccc(NN)nc2)CSSC[C@@H](C(=O)N[C@H](Cc2ccc(O)cc2)C(N)=O)NC1=O [[^99mTc]Tc-HYNIC-PEG4-SS01, metal not drawn]
Log D (pH = 7.4) [1]: −2.03 ± 0.13

C[C@@H](O)[C@@H]1NC(=O)[C@H](CCCCN)NC(=O)[C@@H](Cc2c[nH]c3ccccc23)NC(=O)[C@H](Cc2ccc(O)cc2)NC(=O)[C@H](NC(=O)[C@H](Cc2ccc(Cl)cc2)NC(=O)c2ccc(NN)nc2)CSSC[C@@H](C(=O)N[C@H](Cc2ccc(O)cc2)C(N)=O)NC1=O [[^99mTc]Tc-HYNIC-SS01, metal not drawn]
Log D (pH = 7.4) [1]: −2.21 ± 0.07

C[C@@H](O)[C@@H]1NC(=O)[C@H](CCCCN)NC(=O)[C@@H](Cc2c[nH]c3ccccc23)NC(=O)[C@H](Cc2ccc(O)cc2)NC(=O)[C@@H](NC(=O)[C@@H](Cc2ccccc2)NC(=O)c2ccc(NN)nc2)CSSC[C@@H](C(=O)N[C@H](CO)[C@@H](C)O)NC1=O [[^99mTc]Tc-HYNIC-TOC, metal not drawn, reference compound]
logD ([1]; pH 7.4): -2.77 ± 0.07

C[C@@H](O)[C@@H]1NC(=O)[C@H](CCCCN)NC(=O)[C@@H](Cc2c[nH]c3ccccc23)NC(=O)[C@H](Cc2ccc(O)cc2)NC(=O)[C@H](NC(=O)[C@H](Cc2ccc(Cl)cc2)NC(=O)CCNC(=O)c2ccc(NN)nc2)CSSC[C@@H](C(=O)N[C@H](Cc2ccc(O)cc2)C(N)=O)NC1=O [[^99mTc]Tc-HYNIC-β-Ala-SS01, metal not drawn]
Log D (pH = 7.4) [1]: −1.91 ± 0.19
washout from the tumor on SPECT/CT images (in words) (HEK-SST2 tumors): very fast washout from the tumor

Cpa-c(DCys-Aph(Hor)-DAph(Cbm)-Lys-Thr-Cys)-DTyr-NH2 [JR11]
affinity for SST2 (in words) (SST2): high affinity
